Data: patent US20230257470A1 (published 2023)

T1: human FcγRIIa type R (human, UniProt P12318 36-217)
T1 construct: also called FcgRIIaR; FcγRIIa(R)
T1 chain: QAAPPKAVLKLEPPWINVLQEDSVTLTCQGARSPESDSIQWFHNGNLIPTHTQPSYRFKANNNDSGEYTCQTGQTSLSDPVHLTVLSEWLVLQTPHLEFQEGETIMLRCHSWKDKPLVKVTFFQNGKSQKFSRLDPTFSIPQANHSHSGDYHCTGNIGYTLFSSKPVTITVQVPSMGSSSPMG

T2: human FcγRIIa type H (human, UniProt P12318 36-217)
T2 construct: also called FcgRIIaH; FcγRIIa(H)
T2 sequence: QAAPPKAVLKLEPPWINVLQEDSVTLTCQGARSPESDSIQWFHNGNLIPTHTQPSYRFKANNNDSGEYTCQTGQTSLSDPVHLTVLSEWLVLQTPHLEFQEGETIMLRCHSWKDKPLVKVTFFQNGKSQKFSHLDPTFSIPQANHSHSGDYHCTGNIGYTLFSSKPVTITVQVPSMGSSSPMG

T3: human FcγRIIb (human, UniProt P31994 43-217, limits assumed)
T3 construct: also called FcgRIIb; FcγIIB
T3 sequence: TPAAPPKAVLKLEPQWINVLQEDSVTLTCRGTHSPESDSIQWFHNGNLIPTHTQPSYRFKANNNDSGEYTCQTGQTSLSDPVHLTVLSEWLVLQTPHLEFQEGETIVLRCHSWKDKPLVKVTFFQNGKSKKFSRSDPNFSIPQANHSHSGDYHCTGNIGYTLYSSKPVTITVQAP


Legend:
Experiment in all cases: SPR (Biacore), FcγR over captured antibody; binding amount divided by that of IL6R-BF648/IL6R-L x 100
human FcγRIa = biological target: T4, human FcγRIa (human, UniProt P12314 16-292, limits assumed)
T4 construct: also called FcgRIa; FcγRI (CD64)
T4 sequence (P12314 16-292 limits assumed): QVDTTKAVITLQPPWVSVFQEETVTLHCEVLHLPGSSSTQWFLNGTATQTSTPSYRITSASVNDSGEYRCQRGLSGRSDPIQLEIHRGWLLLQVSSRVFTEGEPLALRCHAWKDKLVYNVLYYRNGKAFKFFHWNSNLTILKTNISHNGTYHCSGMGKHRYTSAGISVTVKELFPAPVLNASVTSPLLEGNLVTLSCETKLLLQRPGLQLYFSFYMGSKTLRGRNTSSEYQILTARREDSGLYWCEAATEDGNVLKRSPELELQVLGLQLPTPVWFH
Method: (§1) According to the following method, relative binding activities were calculated for the results of analyzing interactions with the respective FcγRs.

human FcγRIIa type R = biological target: T1, human FcγRIIa type R
Method: as §1

human FcγRIIa type H = biological target: T2, human FcγRIIa type H
Method: as §1

human FcγRIIb = biological target: T3, human FcγRIIb
Method: as §1

human FcγRIIIa type V = biological target: T5, human FcγRIIIa type V (human, UniProt P08637 17-208, limits assumed)
T5 construct: also called FcgRIIIaV; FcγRIIIa(V)
T5 sequence (P08637 other isoform, or with tags, fused parts or gaps limits assumed): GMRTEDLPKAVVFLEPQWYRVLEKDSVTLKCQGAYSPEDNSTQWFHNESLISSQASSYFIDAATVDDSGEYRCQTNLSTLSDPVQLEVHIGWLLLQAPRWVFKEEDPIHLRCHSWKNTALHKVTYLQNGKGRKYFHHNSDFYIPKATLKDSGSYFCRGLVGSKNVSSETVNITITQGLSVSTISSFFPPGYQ
Method: as §1

Row | Binder | relative binding activity (human FcγRIa) | relative binding activity (human FcγRIIa type R) | relative binding activity (human FcγRIIa type H) | relative binding activity (human FcγRIIb) | relative binding activity (human FcγRIIIa type V)
1 | IL6R-BP129/IL6R-L (antibody, human IgG1, name in EU numbering, copies: 2 + 2) heavy: QVQLQESGPGLVKPSETLSLTCAVSGHSISHDHAWSWVRQPPGEGLEWIGFISYSGITNYNPSLQGRVTISRDNSKNTLYLQMNSLRAEDTAVYYCARSLARTTAMDYWGEGTLVTVSSASTKGPSVFPLAPSSKSTSGGTAALGCLVKDYFPEPVTVSWNSGALTSGVHTFPAVLQSSGLYSLSSVVTVPSSSLGTQTYICNVNHKPSNTKVDKKVEPKSCDKTHTCPPCPAPDLLGGDSVFLFPPKPKDTLMISRTPEVTCVVVDVSHEDPEVKFNWYVDGVEVHNAKTKPREEQDNSTYRVVSVLTVLHQDWLNGKEYKCKVSNKALPKPIEKTISKAKGQPREPQVYTLPPSRDELTKNQVSLTCLVKGFYPSDIAVEWESNGQPENNYKTTPPVLDSDGSFFLYSKLTVDKSRWQQGNVFSCSVMHEALHNHYTQESLSLSP light: DIQMTQSPSSLSASVGDRVTITCRASQDISSYLNWYQQKPGKAPKLLIYYTSRLHSGVPSRFSGSGSGTDFTFTISSLQPEDIATYYCQQGNTLPYTFGQGTKVEIK | 68 relative (IL6R-BF648/IL6R-L = 100) | 111 relative (IL6R-BF648/IL6R-L = 100) | 98 relative (IL6R-BF648/IL6R-L = 100) | 138 relative (IL6R-BF648/IL6R-L = 100) | 95 relative (IL6R-BF648/IL6R-L = 100)
2 | IL6R-BP133/IL6R-L (antibody, human IgG1, name in EU numbering, copies: 2 + 2) heavy: QVQLQESGPGLVKPSETLSLTCAVSGHSISHDHAWSWVRQPPGEGLEWIGFISYSGITNYNPSLQGRVTISRDNSKNTLYLQMNSLRAEDTAVYYCARSLARTTAMDYWGEGTLVTVSSASTKGPSVFPLAPSSKSTSGGTAALGCLVKDYFPEPVTVSWNSGALTSGVHTFPAVLQSSGLYSLSSVVTVPSSSLGTQTYICNVNHKPSNTKVDKKVEPKSCDKTHTCPPCPAPDYLGGDSVFLFPPKPKDTLMISRTPEVTCVVVDVSHEDPEVKFNWYVDGVEVHNAKTKPREEQYNSTYRVVSVLTVLHQDWLNGKEYKCKVSNKALPKPIEKTISKAKGQPREPQVYTLPPSRDELTKNQVSLTCLVKGFYPSDIAVEWESNGQPENNYKTTPPVLDSDGSFFLYSKLTVDKSRWQQGNVFSCSVMHEALHNHYTQESLSLSP light: DIQMTQSPSSLSASVGDRVTITCRASQDISSYLNWYQQKPGKAPKLLIYYTSRLHSGVPSRFSGSGSGTDFTFTISSLQPEDIATYYCQQGNTLPYTFGQGTKVEIK | 41 relative (IL6R-BF648/IL6R-L = 100) | 174 relative (IL6R-BF648/IL6R-L = 100) | 151 relative (IL6R-BF648/IL6R-L = 100) | 137 relative (IL6R-BF648/IL6R-L = 100) | 114 relative (IL6R-BF648/IL6R-L = 100)
3 | IL6R-BP143/IL6R-L (antibody, human IgG1, name in EU numbering, copies: 2 + 2) heavy: QVQLQESGPGLVKPSETLSLTCAVSGHSISHDHAWSWVRQPPGEGLEWIGFISYSGITNYNPSLQGRVTISRDNSKNTLYLQMNSLRAEDTAVYYCARSLARTTAMDYWGEGTLVTVSSASTKGPSVFPLAPSSKSTSGGTAALGCLVKDYFPEPVTVSWNSGALTSGVHTFPAVLQSSGLYSLSSVVTVPSSSLGTQTYICNVNHKPSNTKVDKKVEPKSCDKTHTCPPCPAPEYLGGDSVFLFPPKPKDTLMISRTPEVTCVVVDVSHEDPEVKFNWYVDGVEVHNAKTKPREEQYNSTYRVVSVLTVLHQDWLNGKEYKCKVSNAALPAPIEKTISKAKGQPREPQVYTLPPSRDELTKNQVSLTCLVKGFYPSDIAVEWESNGQPENNYKTTPPVLDSDGSFFLYSKLTVDKSRWQQGNVFSCSVMHEALHNHYTQESLSLSP light: DIQMTQSPSSLSASVGDRVTITCRASQDISSYLNWYQQKPGKAPKLLIYYTSRLHSGVPSRFSGSGSGTDFTFTISSLQPEDIATYYCQQGNTLPYTFGQGTKVEIK | 86 relative (IL6R-BF648/IL6R-L = 100) | 238 relative (IL6R-BF648/IL6R-L = 100) | 143 relative (IL6R-BF648/IL6R-L = 100) | 133 relative (IL6R-BF648/IL6R-L = 100) | 114 relative (IL6R-BF648/IL6R-L = 100)
4 | IL6R-BP144/IL6R-L (antibody, human IgG1, name in EU numbering, copies: 2 + 2) heavy: QVQLQESGPGLVKPSETLSLTCAVSGHSISHDHAWSWVRQPPGEGLEWIGFISYSGITNYNPSLQGRVTISRDNSKNTLYLQMNSLRAEDTAVYYCARSLARTTAMDYWGEGTLVTVSSASTKGPSVFPLAPSSKSTSGGTAALGCLVKDYFPEPVTVSWNSGALTSGVHTFPAVLQSSGLYSLSSVVTVPSSSLGTQTYICNVNHKPSNTKVDKKVEPKSCDKTHTCPPCPAPELLGDDSVFLFPPKPKDTLMISRTPEVTCVVVDVSHEDPEVKFNWYVDGVEVHNAKTKPREEQYNSTYRVVSVLTVLHQDWLNGKEYKCKVSNAALPAPIEKTISKAKGQPREPQVYTLPPSRDELTKNQVSLTCLVKGFYPSDIAVEWESNGQPENNYKTTPPVLDSDGSFFLYSKLTVDKSRWQQGNVFSCSVMHEALHNHYTQESLSLSP light: DIQMTQSPSSLSASVGDRVTITCRASQDISSYLNWYQQKPGKAPKLLIYYTSRLHSGVPSRFSGSGSGTDFTFTISSLQPEDIATYYCQQGNTLPYTFGQGTKVEIK | 64 relative (IL6R-BF648/IL6R-L = 100) | 204 relative (IL6R-BF648/IL6R-L = 100) | 108 relative (IL6R-BF648/IL6R-L = 100) | 121 relative (IL6R-BF648/IL6R-L = 100) | 128 relative (IL6R-BF648/IL6R-L = 100)
5 | IL6R-BP145/IL6R-L (antibody, human IgG1, name in EU numbering, copies: 2 + 2) heavy: QVQLQESGPGLVKPSETLSLTCAVSGHSISHDHAWSWVRQPPGEGLEWIGFISYSGITNYNPSLQGRVTISRDNSKNTLYLQMNSLRAEDTAVYYCARSLARTTAMDYWGEGTLVTVSSASTKGPSVFPLAPSSKSTSGGTAALGCLVKDYFPEPVTVSWNSGALTSGVHTFPAVLQSSGLYSLSSVVTVPSSSLGTQTYICNVNHKPSNTKVDKKVEPKSCDKTHTCPPCPAPEYLGDDSVFLFPPKPKDTLMISRTPEVTCVVVDVSHEDPEVKFNWYVDGVEVHNAKTKPREEQYNSTYRVVSVLTVLHQDWLNGKEYKCKVSNKALPAPIEKTISKAKGQPREPQVYTLPPSRDELTKNQVSLTCLVKGFYPSDIAVEWESNGQPENNYKTTPPVLDSDGSFFLYSKLTVDKSRWQQGNVFSCSVMHEALHNHYTQESLSLSP light: DIQMTQSPSSLSASVGDRVTITCRASQDISSYLNWYQQKPGKAPKLLIYYTSRLHSGVPSRFSGSGSGTDFTFTISSLQPEDIATYYCQQGNTLPYTFGQGTKVEIK | 41 relative (IL6R-BF648/IL6R-L = 100) | 350 relative (IL6R-BF648/IL6R-L = 100) | 224 relative (IL6R-BF648/IL6R-L = 100) | 152 relative (IL6R-BF648/IL6R-L = 100) | 153 relative (IL6R-BF648/IL6R-L = 100)
6 | IL6R-BP147/IL6R-L (antibody, human IgG1, name in EU numbering, the list runs over r28 and r29; copies: 2 + 2) heavy: QVQLQESGPGLVKPSETLSLTCAVSGHSISHDHAWSWVRQPPGEGLEWIGFISYSGITNYNPSLQGRVTISRDNSKNTLYLQMNSLRAEDTAVYYCARSLARTTAMDYWGEGTLVTVSSASTKGPSVFPLAPSSKSTSGGTAALGCLVKDYFPEPVTVSWNSGALTSGVHTFPAVLQSSGLYSLSSVVTVPSSSLGTQTYICNVNHKPSNTKVDKKVEPKSCDKTHTCPPCPAPEYLGDDSVFLFPPKPKDTLMISRTPEVTCVVVDVSHEDPEVKFNWYVDGVEVHNAKTKPREEQYNSTYRVVSVLTVLHQDWLNGKEYKCKVSNAALPKPIEKTISKAKGQPREPQVYTLPPSRDELTKNQVSLTCLVKGFYPSDIAVEWESNGQPENNYKTTPPVLDSDGSFFLYSKLTVDKSRWQQGNVFSCSVMHEALHNHYTQESLSLSP light: DIQMTQSPSSLSASVGDRVTITCRASQDISSYLNWYQQKPGKAPKLLIYYTSRLHSGVPSRFSGSGSGTDFTFTISSLQPEDIATYYCQQGNTLPYTFGQGTKVEIK | 24 relative (IL6R-BF648/IL6R-L = 100) | 650 relative (IL6R-BF648/IL6R-L = 100) | 582 relative (IL6R-BF648/IL6R-L = 100) | 177 relative (IL6R-BF648/IL6R-L = 100) | 209 relative (IL6R-BF648/IL6R-L = 100)
7 | IL6R-BP149/IL6R-L (antibody, human IgG1, name in EU numbering, the list runs over r32 and r33; copies: 2 + 2) heavy: QVQLQESGPGLVKPSETLSLTCAVSGHSISHDHAWSWVRQPPGEGLEWIGFISYSGITNYNPSLQGRVTISRDNSKNTLYLQMNSLRAEDTAVYYCARSLARTTAMDYWGEGTLVTVSSASTKGPSVFPLAPSSKSTSGGTAALGCLVKDYFPEPVTVSWNSGALTSGVHTFPAVLQSSGLYSLSSVVTVPSSSLGTQTYICNVNHKPSNTKVDKKVEPKSCDKTHTCPPCPAPDYLGDDSVFLFPPKPKDTLMISRTPEVTCVVVDVSHEDPEVKFNWYVDGVEVHNAKTKPREEQDNSTYRVVSVLTVLHQDWLNGKEYKCKVSNAALPKPIEKTISKAKGQPREPQVYTLPPSRDELTKNQVSLTCLVKGFYPSDIAVEWESNGQPENNYKTTPPVLDSDGSFFLYSKLTVDKSRWQQGNVFSCSVMHEALHNHYTQESLSLSP light: DIQMTQSPSSLSASVGDRVTITCRASQDISSYLNWYQQKPGKAPKLLIYYTSRLHSGVPSRFSGSGSGTDFTFTISSLQPEDIATYYCQQGNTLPYTFGQGTKVEIK | 29 relative (IL6R-BF648/IL6R-L = 100) | 539 relative (IL6R-BF648/IL6R-L = 100) | 401 relative (IL6R-BF648/IL6R-L = 100) | 173 relative (IL6R-BF648/IL6R-L = 100) | 186 relative (IL6R-BF648/IL6R-L = 100)
